Results on two substances are retold here after patent US9822149B2, “Polypeptide having multiple directionality and self-assembled nanostructure containing the same” (INDUSTRY-ACADEMIC COOPERATION FOUNDATION, YONSEI UNIVERSITY, priority 2014, dated 2017).

Format in all cases: physicochemical
Data set [1] is described as follows: Transmission electron microscopy (TEM) of negatively stained aggregate. An excerpt:
The insert is an enlarged image.

Data set [2] is described as follows: Small-angle X-ray scattering (SAXS) of polypeptide in solution. The procedure:
The black circles represent experimental data and the red line represents X-ray scattering data of the most likely model obtained using DAMMIF.
As shown in FIG. 10 and FIG. 11, a form factor (P(q)) and an electron pair distance distribution function p(r) were obtained to investigate the shape and size of the polypeptide prepared in Example 2 (ODβ-S).
For the polypeptide prepared in Example 2 (ODβ-S), Rg,p(r) was calculated to be 11.01±0.078 Å and Dmax was calculated to be 34.0 Å.

Data set [3] is described as follows: Diffusion-ordered spectroscopy (DOSY) in solution.

Non-standard residues stand in square brackets, D forms with d. No end group written: not given here. ebes = not defined here

With “Comparative Example 2: comparative naturally directed β-α-β polypeptide WKWEWYWKWEW-GSGS-A(EAAAK)2A-GS-... (SEQ ID NOS 13 and 3) (chain 1 WKWEWYWKWEWGSGSAEAAAKEAAAKAGSK; chain 2 WEWKWYWEWKW; also: chain 2 joined at Lys30 side chain (εK branch))”, in data set [1], the aggregate morphology result was “forms a heterogeneous structure and exists mainly as large-sized aggregates”.
For “Example 2: short polypeptide WKWEW-GSGS-(ebes)GS-εK- with oppositely directed WEWKW (SEQ ID NOS 9 and 10) (chain 1 WKWEWGSGS[ebes]GSK; numbers in words are those of the source; reading uncertain; also: K12 εK branch carrying oppositely directed WEWKW strand (chain 2), printed as WKWEW-GSGS-(ebes)GS-εK-)”, in data set [2], the aggregation state entry was “exists as monomers rather than as aggregates”. In data set [2] (from p(r)), this substance returned a Dmax of 34.0 Å. In data set [2] (from p(r) using GNOM), the “Rg,p(r)” value is reported as 11.01±0.078 Å. Moreover, in data set [3], the “D (diffusion coefficient)” value is 1.625×10^−10 m^2/s and the “hydrodynamic radius R(H)” value stood at 12.27 Å.
